This is an account of results in the supplement of paper PMC12042874.

± gives the uncertainty stated by the source.

The data set in a line: amyloid nucleation score (Sup35N fusion, yeast selection) (log enrichment); library NNK2; higher = more nucleation; inactive = no reads after selection. The method, boiled down:
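After 24 hours of induction with 100 μM copper sulfate, psi-negative yeast expressing peptides of 20 random codons fused to Sup35N were grown for 7 days at 30°C on medium lacking adenine and uracil. Input and output plasmid inserts were sequenced with Illumina, and sequences with under 100 input reads were discarded. Scores for nucleation are the DiMSum log enrichment of output over input reads, centred on the mode score of non-aggregating sequences.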
For the substance NFLRML, the amyloid nucleation score was -0.139 ± 0.21.
ILGSFEHSTQGKYSYWGMRG yielded an amyloid nucleation score of 4.51 ± 0.066.
In the case of TMCMPAHMPYQHVSYLDILT, the amyloid nucleation score was -0.161 ± 1.1.
For the substance DLSVLDLGVLFINRFTRTLE, the amyloid nucleation score result was “inactive”.
To QGSNRACGLSEDCLFTV belongs 0.282 ± 0.22; to QMSLAGRG, “inactive”; to LYQWSGLIKSVLNSGCGKVE, 0.315 ± 0.54.
To SGLRYFMFIISNSI belongs 0.58 ± 0.22; to LYRFAMLLRLGARSVNMLGK, -0.573 ± 1.1.
To FNNLFIRTADQEVTILDVTH belongs -0.031 ± 1.
For NGGDRVLSFDIIIAGSLVAK, the amyloid nucleation score is -0.354 ± 0.39.
Take NDSNYKPANSYRSPSGNRMV: the amyloid nucleation score entry is “inactive”.
Substance IVRVSMGYGIIPLICSKTEG yielded an amyloid nucleation score of 0.859 ± 0.74.
In turn, CGNPFGLSTHFNYLRRMPWE came in with an amyloid nucleation score of 0.116 ± 0.25.
As to SYNLETFIFLWKESG, the amyloid nucleation score entry was “inactive”.
To ALILECRVRSRS belongs 4.16 ± 0.12; to GTNHWTVRLIYLVLHLDRDG, 0.583 ± 0.41.
On to WKESGVHRHFHTSIGKDRVL, for which the amyloid nucleation score result is “inactive”.
On to WFIASLLYISLWFYICSTMS, for which the amyloid nucleation score is 0.878 ± 0.24.
On to FGSAFTNGSVRNYVDGVQVI, for which the amyloid nucleation score was found to be 0.648 ± 0.74.
To SIGHNSSF belongs 0.117 ± 0.49; to NFTIHTWVYMHRVNPPGILN, “inactive”.
With VTALDMFVLSWGCGWGMN, the amyloid nucleation score turned out to be 3.06 ± 0.17.
To TRQLIYHWDKFSPHPAQFLT belongs 0.652 ± 0.64; to SYGNDNDGTWWS, 0.676 ± 0.57.
On to ARRKVSHNV, for which the amyloid nucleation score worked out at 0.205 ± 0.77.
To TDLCCRLSIQLINHVYHSCL belongs 0.351 ± 0.74; to RPWVHTGW, 0.277 ± 0.57.
To IPYEKPHRYIVNWECVAGSM belongs 0.621 ± 0.43; to YLSNKT, -0.515 ± 0.29.
With RFFFYGLGMFYIETFYLLWF, the amyloid nucleation score entry is “inactive”.
To SGFSVTNCGN belongs -0.155 ± 0.26; to DLKVDQSVWRSLDMNALVAN, 1.27 ± 0.44; to ASRMPSGVRSFWAKPR, 0.321 ± 0.32.
To CNFHCPI belongs 2.63 ± 0.17; to KWTFLRLILTMV, -0.511 ± 0.56; to WKFRNN, “inactive”.
To PSYPSVSRVK belongs 0.151 ± 0.24; to SLTLHLSEWGAISPN, -0.347 ± 1; to CYSLSYLILVCR, 5.73 ± 0.041.
The substance MDYWVFMPFQLHRLCCYTPL came in with an amyloid nucleation score of -0.303 ± 0.24.
To SLMCIIFLQYWNLLLTIRVT belongs “inactive”; to HYGNSWY, 0.958 ± 0.48; to KGFAKILLGTSCLMSV, -0.848 ± 0.62.
To RNYVIFTSEAKVAADIPLYL belongs 2.45 ± 0.21; to RNSDGPLCSDGVVHFIRMLV, 0.001 ± 0.65; to AVPAVRVNGLHIRNCGYTGP, 1.22 ± 0.2.
AVIMALNIGWRRRDSGWDGV gave an amyloid nucleation score of 5.9 ± 0.083.
In turn, MNCVLQKLVVVCFQSMAYMR gave an amyloid nucleation score of 0.498 ± 0.27.
With VRLFVFSKVKGLIMVNCSWK, the amyloid nucleation score was -1.35 ± 0.44.
To MTVYLLIVLKFCFRRMSPEA belongs -0.255 ± 0.49.
In turn, SAVIFAESTCV showed an amyloid nucleation score of -0.512 ± 0.79.
For the substance TWRNYS, the amyloid nucleation score was -0.279 ± 0.35.
In turn, SHYCGLVCLELEIWLYP displayed an amyloid nucleation score of 1.31 ± 0.18.
Consider PLYPLCSHPYVGFVTHTISR, for which the amyloid nucleation score was -0.053 ± 1.
Substance NSASLFFS came in with an amyloid nucleation score of 0.27 ± 0.17.
To LGRIHYNLFYVYV belongs 2.27 ± 0.14; to VVMVVCMV, 0.36 ± 0.62; to GPMRGC, -0.548 ± 1.1.
As for GLVNSTPRKRKLFKGDAVHS, the amyloid nucleation score is 0.321 ± 0.48.
To LLHIFLYGLSLILWWSHRTR belongs 7.06 ± 0.079; to LLVGLIASPPGGTGVTLFPT, 4.15 ± 0.049; to GVFSY, -0.967 ± 0.29.
To HNLQECSPVGPGTAFFCGSW belongs -0.243 ± 1.1; to YNLESLNFMLCSLRTQGKFR, 0.149 ± 0.25.
To YSELMFTEVIYTVYYLTFLR belongs -0.797 ± 0.76; to CFISQILEFCCSFIFSRDFF, 0.286 ± 0.27.
With PLTNSNRPGMKHLSSKQSSV, the amyloid nucleation score amounted to 0.138 ± 0.41.
To CGSQKWVQYKIMKWYK belongs 0.627 ± 0.57; to WEDAVDSSVRFC, -0.211 ± 0.61; to NICRM, -0.058 ± 0.53.
To IRQIIESWQFLYISVYAGLV belongs 0.186 ± 0.51.
To NVYSAYNLACFALLYCLLIW belongs 0.691 ± 0.8; to CAIFVRERW, 5.03 ± 0.089.
For CNVSSWSFLPPS, the amyloid nucleation score result is “inactive”.
For MQMLWYTMFFNSSRLVC, the amyloid nucleation score was -1.58 ± 0.61.
To PESGGNAIFAHERMQLGRRS belongs 0.92 ± 0.57; to RGTNQSSVSMRGAL, 0.523 ± 0.36; to RPMWLSGAEKKWLSCWCNCM, 6.013 ± 0.046.
Regarding WYVFACLVELYNCGPHGAID, the amyloid nucleation score entry was “inactive”.
To RDHLFCG belongs 0.654 ± 0.16.
YGFEAFWDNLQPAFTVPRVM: the amyloid nucleation score entry was “inactive”.
Consider LANYYTDSVRPSCGY, for which the amyloid nucleation score was -0.022 ± 0.55.
To NVGTEFVWIPYFYSAS belongs 0.716 ± 0.66; to RHYLLFGWIVSPKVELFSPS, 0.895 ± 0.81.
Regarding CWQVYLIFMGRMVCLTVML, the amyloid nucleation score worked out at 1.15 ± 0.66.
To SSFNTDFACSWVGYMAVVSM belongs -0.771 ± 1.1.
NCPRWICAILYEYHAVRRRV showed an amyloid nucleation score of 0.713 ± 0.49.
For IGIMQMIYFVD, the amyloid nucleation score came out at 5.79 ± 0.068.
To DNDMG belongs -0.267 ± 0.25; to LILNLVFFVIPDTVFYTSGL, 6.732 ± 0.058; to LLTGVISGYQIRWGTTSLNG, 2.49 ± 0.1.
To QEVELGMGPKRGETVKEVDL belongs 0.098 ± 0.22.
To CFTNIYRKGMMCYGPFTAMT belongs -0.214 ± 1.1; to FTFILLGYVWRLLMYIPGMR, 0.236 ± 1.1; to KRNVLLLYYSCSAICSRYVV, -0.22 ± 0.63.
In the case of FGKCYYLFVSYHYMLGLACT, the amyloid nucleation score is -0.549 ± 1.
To WGLSRNSNIGHRVLIVAGNL belongs -0.683 ± 0.35.
To CLTSGHL belongs 0.372 ± 0.74; to ATFFM, -0.011 ± 1.1.
To FEGCCWVVGLLRLSG belongs 8.713 ± 0.077; to RSIISFPLFLFSIQLIPPWA, -0.792 ± 0.6; to AVHDGFDRNMAIKGTGGRWW, 3.79 ± 0.098.
For DDVSHPHLKCIVWD, the amyloid nucleation score entry is “inactive”.
YNTVVVPDVMTGRF had an amyloid nucleation score of -0.599 ± 1.
To LHCLAISFNNFSLMVLYAGN belongs -0.187 ± 0.54; to HNGVRRHMSNVSKILHSYF, 0.02 ± 1; to SVRVA, 1.66 ± 0.26.
In turn, RYFINFSSLCHQLDILWRCV gave an amyloid nucleation score of -1.03 ± 0.76.
VLVRS came in with an amyloid nucleation score of 0.157 ± 1.
The substance RSRRRHRLDVGSWRWCCGES registered an amyloid nucleation score of 4.08 ± 0.052.
To LYETSMNDPMRVHHLRCEFI belongs -0.254 ± 0.56; to TFVRVPFWFRKN, 9.788 ± 0.071.
Take LVFKAPRTITSPCCYGSNWS: the amyloid nucleation score came to 0.504 ± 0.36.
To SAVSMMLYWGSLNRVDYCWS belongs 0.877 ± 0.32; to EYLTNVMVRGDYFGWDHAIA, -0.949 ± 0.63; to LERFSATYLKAWSGGVCVRV, -0.067 ± 0.65.
To YDKDFCDRRTEPKKFVLRHA belongs 0.092 ± 0.4.
Consider SILSRCIRQVLFREPDVWRS, for which the amyloid nucleation score is -0.32 ± 0.48.
EVSTWQLPMNTDTVEGGSVV gave an amyloid nucleation score of 1.16 ± 0.25.
To CMLMYVYMIDWRPINFMFF belongs 5.301 ± 0.041.
FRMNEQSPAEWSRSVYFGGG: the amyloid nucleation score is -0.346 ± 0.49.
To LIVTLSDRWWEKGASLVESG belongs 0.699 ± 0.15.
LVFMAFC yielded an amyloid nucleation score of 4.839 ± 0.04.
With GPITWTNSSGCRIPMPSFSE, the amyloid nucleation score stood at 1.42 ± 0.36.
PPRGFFVAWIVDFRGAGLMG registered an amyloid nucleation score of -0.743 ± 0.48.
The substance FLRFLVCLG came in with an amyloid nucleation score of -0.22 ± 1.1.
On to TNLYNDIGDRMFSSNWSTPV, for which the amyloid nucleation score is -0.02 ± 1.1.
In turn, LGWASYVYGCGRRGGSCRGW gave an amyloid nucleation score of 1.87 ± 0.12.
To LNMVFW belongs “inactive”.
To YNGTTLMMGDIGSCSFI belongs -0.787 ± 0.38; to TRSRKWHRGS, 1.14 ± 0.32.
As to DSCGLCRYGGEMFRKFKFIS, the amyloid nucleation score entry was “inactive”.
To YNSRNIEDFFVIDLVNWLRL belongs -1.24 ± 1.1; to YDVGTPRIRDFLCAIDRGNH, 0.106 ± 0.34; to GITPRKDFFYYTLVDTCLVL, -0.198 ± 0.46.
On to LWREYLVHGSP, for which the amyloid nucleation score was 0.329 ± 0.5.
As for EDIWEMRSLHLWLSCSGWTD, the amyloid nucleation score stood at 2.27 ± 0.15.
Take MGRGPESQHFVCCHRRAWL: the amyloid nucleation score was 1.15 ± 0.3.
To CVIGCSGWKRIFIISILYRV belongs -0.562 ± 1.
